In PMC5893359 (Cancer cell, 2018):
Each block holds one molecule with its values, some of them ahead of it.

Experiments:
[1] = biological target: epidermal growth factor receptor, endogenous in A431 cell lysate (human (endogenous in A431)) (UniProt P00533); assay: ELISA
[2] = biological target: epidermal growth factor receptor, endogenous in A431 cell lysate (human (endogenous in A431), UniProt P00533 25-1210); assay: ELISA

Kd [1]: 217 nM
Molecule: amphiregulin, recombinant (from UniProt P15514 20-187) (ligand)

Kd [2]: 885 nM
B1: bovine RNase A (enzyme, UniProt P61823 27-150, looked up)
chain: KETAAAKFERQHMDSSTSAASSSNYCNQMMKSRNLTKDRCKPVNTFVHESLADVQAVCSQKNVACKNGQTNCYQSYSTMSITDCRETGSSKYPNCAYKTTQANKHIIVACEGNPYVPVHFDASV
